Substitutions are numbered along the chain they refer to. In names and notes the source's numbering stands. Several values for one entry are separate records, joined by “and”; a condition that tells them apart may be missing. Equal values may be shown once.
Legend:
[1] = target: Factor X (Homo sapiens (Human)) (UniProt P00742)
Mesyl-dFPR-ACC = target: T1, Mesyl-dFPR-ACC
T1 sequence (peptide, N-terminal mesyl; D-Phe at position 1 (dF); C-terminal ACC fluorophore): FPR

In the case of “{Gla swap FIX/Q44S}/Q286R/M298Q-FVIIa (enzyme)”, the kcat/KM (M^-1s^-1), TF-dependent assay [1] is reported as 1.98e+08 M⁻¹ s⁻¹, the kcat/KM, TF-independent assay [1] is reported as 729 M⁻¹ s⁻¹ and the Activity (µmol/sec/µmol), specific activity for mesyl-dFPR-ACC (µmol/sec/µmol) (Mesyl-dFPR-ACC) is reported as 1.11.

“T128N/P129A/Q286R/M298Q/H373F-FVIIa (enzyme)” was tested, and the kcat/KM (M^-1s^-1), TF-dependent assay [1] was 1.33e+08 M⁻¹ s⁻¹, the kcat/KM, TF-independent assay [1] was 30.7 M⁻¹ s⁻¹ and the Activity (µmol/sec/µmol), specific activity for mesyl-dFPR-ACC (µmol/sec/µmol) (Mesyl-dFPR-ACC) was 2.83.

For “{Gla swap FIX/K43I}/Q286R/M298Q-FVIIa (enzyme)”, the kcat/KM (M^-1s^-1), TF-dependent assay [1] was 2.73e+08 M⁻¹ s⁻¹ and 2.91e+08 M⁻¹ s⁻¹, the kcat/KM, TF-independent assay [1] was 902 M⁻¹ s⁻¹ and 794 M⁻¹ s⁻¹ and the Activity (µmol/sec/µmol), specific activity for mesyl-dFPR-ACC (µmol/sec/µmol) (Mesyl-dFPR-ACC) was 1.2.

Work on S52A/S60A-FVIIa (enzyme) yielded a kcat/KM (M^-1s^-1), TF-dependent assay [1] of 3.56e+07 M⁻¹ s⁻¹, a kcat/KM, TF-independent assay [1] of 3.8 M⁻¹ s⁻¹ and an Activity (µmol/sec/µmol), specific activity for mesyl-dFPR-ACC (µmol/sec/µmol) (Mesyl-dFPR-ACC) of 1.95.

“A122N/G124S/A175S/S222A/H257A/Q286R/M298Q-FVIIa (enzyme)” showed a kcat/KM, TF-dependent assay [1] of 8.4e+07 M⁻¹ s⁻¹ and an Activity (µmol/sec/µmol), specific activity for mesyl-dFPR-ACC (µmol/sec/µmol) (Mesyl-dFPR-ACC) of 1.99.

For “GlaSwapFIX/S222A/T239I/Q286R-FVIIa (enzyme)”, the kcat/KM (M^-1s^-1), TF-dependent assay [1] was 6.77e+07 M⁻¹ s⁻¹ and the Activity (µmol/sec/µmol), specific activity for mesyl-dFPR-ACC (µmol/sec/µmol) (Mesyl-dFPR-ACC) was 0.25.

For “T128N/P129A/S222A/H257A/Q286R/M298Q-FVIIa (enzyme)”, the kcat/KM (M^-1s^-1), TF-dependent assay [1] was 1.55e+08 M⁻¹ s⁻¹ and 1.73e+08 M⁻¹ s⁻¹ and the Activity (µmol/sec/µmol), specific activity for mesyl-dFPR-ACC (µmol/sec/µmol) (Mesyl-dFPR-ACC) was 1.66.

For T128N/P129A/A175S/Q286R-FVIIa (enzyme), the kcat/KM (M^-1s^-1), TF-dependent assay [1] was 3.33e+07 M⁻¹ s⁻¹, the kcat/KM, TF-independent assay [1] was 3.3 M⁻¹ s⁻¹ and the Activity (µmol/sec/µmol), specific activity for mesyl-dFPR-ACC (µmol/sec/µmol) (Mesyl-dFPR-ACC) was 1.88.

With S52A/S60A/S222A-FVIIa (enzyme) the kcat/KM (M^-1s^-1), TF-dependent assay [1] was 3.91e+07 M⁻¹ s⁻¹, the kcat/KM, TF-independent assay [1] was 10.2 M⁻¹ s⁻¹ and 19.6 M⁻¹ s⁻¹ and the Activity (µmol/sec/µmol), specific activity for mesyl-dFPR-ACC (µmol/sec/µmol) (Mesyl-dFPR-ACC) was 1.22.

With V158D/E296V/M298Q-FVIIa (enzyme) the kcat/KM (M^-1s^-1), TF-dependent assay [1] was 1.81e+08 M⁻¹ s⁻¹ and 1.65e+08 M⁻¹ s⁻¹, the kcat/KM, TF-independent assay [1] was 1220 M⁻¹ s⁻¹ and 984 M⁻¹ s⁻¹ and the Activity (µmol/sec/µmol), specific activity for mesyl-dFPR-ACC (µmol/sec/µmol) (Mesyl-dFPR-ACC) was 3.28.

A122N/G124S/A175S/Q366V-FVIIa (enzyme) gave a kcat/KM (M^-1s^-1), TF-dependent assay [1] of 3.02e+07 M⁻¹ s⁻¹, a kcat/KM, TF-independent assay [1] of 3 M⁻¹ s⁻¹ and an Activity (µmol/sec/µmol), specific activity for mesyl-dFPR-ACC (µmol/sec/µmol) (Mesyl-dFPR-ACC) of 2.34.

S52A/S60A/Q286R/M298Q-FVIIa (enzyme) was tested, and the kcat/KM (M^-1s^-1), TF-dependent assay [1] was 1.25e+08 M⁻¹ s⁻¹, the kcat/KM, TF-independent assay [1] was 217 M⁻¹ s⁻¹ and the Activity (µmol/sec/µmol), specific activity for mesyl-dFPR-ACC (µmol/sec/µmol) (Mesyl-dFPR-ACC) was 1.08.

Molecule “T128N/P129A/V158D/E296V/M298Q-FVIIa (enzyme)” has a kcat/KM (M^-1s^-1), TF-dependent assay [1] of 2.01e+08 M⁻¹ s⁻¹, a kcat/KM, TF-independent assay [1] of 1380 M⁻¹ s⁻¹ and an Activity (µmol/sec/µmol), specific activity for mesyl-dFPR-ACC (µmol/sec/µmol) (Mesyl-dFPR-ACC) of 3.26.

In the case of “T128N/P129A/A175S/S222A/H257A/Q286R/M298Q-FVIIa (enzyme)”, the kcat/KM, TF-dependent assay [1] is reported as 6.89e+07 M⁻¹ s⁻¹ and the Activity (µmol/sec/µmol), specific activity for mesyl-dFPR-ACC (µmol/sec/µmol) (Mesyl-dFPR-ACC) is reported as 21.8.

Work on Gla swap FIX-FVIIa (enzyme) yielded a kcat/KM (M^-1s^-1), TF-dependent assay [1] of 5.38e+07 M⁻¹ s⁻¹, a kcat/KM, TF-independent assay [1] of 41.3 M⁻¹ s⁻¹ and an Activity (µmol/sec/µmol), specific activity for mesyl-dFPR-ACC (µmol/sec/µmol) (Mesyl-dFPR-ACC) of 1.63.

T128N/P129A/Q286R-FVIIa (enzyme) was tested, and the kcat/KM (M^-1s^-1), TF-dependent assay [1] was 8.45e+07 M⁻¹ s⁻¹ and 6.2e+07 M⁻¹ s⁻¹, the kcat/KM, TF-independent assay [1] was 8.7 M⁻¹ s⁻¹ and 10.5 M⁻¹ s⁻¹ and the Activity (µmol/sec/µmol), specific activity for mesyl-dFPR-ACC (µmol/sec/µmol) (Mesyl-dFPR-ACC) was 1.21.

“S52A/S60A/Q286R/M298Q/H373F-FVIIa (enzyme)” gave a kcat/KM (M^-1s^-1), TF-dependent assay [1] of 1.77e+08 M⁻¹ s⁻¹, a kcat/KM, TF-independent assay [1] of 63.3 M⁻¹ s⁻¹ and an Activity (µmol/sec/µmol), specific activity for mesyl-dFPR-ACC (µmol/sec/µmol) (Mesyl-dFPR-ACC) of 5.02.

With A122N/G124S/A175S/Q286R-FVIIa (enzyme) the kcat/KM (M^-1s^-1), TF-dependent assay [1] was 4.11e+07 M⁻¹ s⁻¹, the kcat/KM, TF-independent assay [1] was 3 M⁻¹ s⁻¹ and the Activity (µmol/sec/µmol), specific activity for mesyl-dFPR-ACC (µmol/sec/µmol) (Mesyl-dFPR-ACC) was 2.16.

“Gla swap FIX/T239I/Q286R/M298Q-FVIIa (enzyme)” showed a kcat/KM (M^-1s^-1), TF-dependent assay [1] of 1.25e+08 M⁻¹ s⁻¹, a kcat/KM, TF-independent assay [1] of 244 M⁻¹ s⁻¹ and an Activity (µmol/sec/µmol), specific activity for mesyl-dFPR-ACC (µmol/sec/µmol) (Mesyl-dFPR-ACC) of 0.67.

Work on “Gla swap FIX/A122N/G124S/A175S/S222A/Q286R-FVIIa (enzyme)” yielded a kcat/KM, TF-dependent assay [1] of 4.13e+07 M⁻¹ s⁻¹ and an Activity (µmol/sec/µmol), specific activity for mesyl-dFPR-ACC (µmol/sec/µmol) (Mesyl-dFPR-ACC) of 0.89.

“T128N/P129A/A175S/Q286R/M298Q/H373F-FVIIa (enzyme)” showed a kcat/KM, TF-dependent assay [1] of 5.72e+07 M⁻¹ s⁻¹ and an Activity (µmol/sec/µmol), specific activity for mesyl-dFPR-ACC (µmol/sec/µmol) (Mesyl-dFPR-ACC) of 2.78.

S52A/S60A/Q286R-FVIIa (enzyme) was tested, and the kcat/KM (M^-1s^-1), TF-dependent assay [1] was 4.1e+07 M⁻¹ s⁻¹ and the Activity (µmol/sec/µmol), specific activity for mesyl-dFPR-ACC (µmol/sec/µmol) (Mesyl-dFPR-ACC) was 0.44.

For “{Gla swap FIX/E40L}/Q286R/M298Q-FVIIa (enzyme)”, the kcat/KM (M^-1s^-1), TF-dependent assay [1] was 2.08e+08 M⁻¹ s⁻¹, the kcat/KM, TF-independent assay [1] was 814 M⁻¹ s⁻¹ and the Activity (µmol/sec/µmol), specific activity for mesyl-dFPR-ACC (µmol/sec/µmol) (Mesyl-dFPR-ACC) was 1.16.

B1: A122N/G124S-FVIIa (enzyme)
chain: ANAFLEELRPGSLERECKEEQCSFEEAREIFKDAERTKLFWISYSDGDQCASSPCQNGGSCKDQLQSYICFCLPAFEGRNCETHKDDQLICVNENGGCEQYCSDHTGTKRSCRCHEGYSLLNDSVSCTPTVEYPCGKIPILEKRNASKPQGRIVGGKVCPKGECPWQVLLLVNGAQLCGGTLINTIWVVSAAHCFDKIKNWRNLIAVLGEHDLSEHDGDEQSRRVAQVIIPSTYVPGTTNHDIALLRLHQPVVLTDHVVPLCLPERTFSERTLAFVRFSLVSGWGQLLDRGATALELMVLNVPRLMTQDCLQQSRKVGDSPNITEYMFCAGYSDGSKDSCKGDSGGPHATHYRGTWYLTGIVSWGQGCATVGHFGVYTRVSQYIEWLQKLMRSEPRPGVLLRAPFP
Work on B1 yielded a kcat/KM (M^-1s^-1), TF-dependent assay [1] of 3.87e+07 M⁻¹ s⁻¹, a kcat/KM, TF-independent assay [1] of 3.4 M⁻¹ s⁻¹ and an Activity (µmol/sec/µmol), specific activity for mesyl-dFPR-ACC (µmol/sec/µmol) (Mesyl-dFPR-ACC) of 2.24.

B2: H257S-FVIIa (enzyme)
chain: B1 chain with N122A, S124G, H257S
In the case of B2, the kcat/KM (M^-1s^-1), TF-dependent assay [1] is reported as 1.18e+08 M⁻¹ s⁻¹, the kcat/KM, TF-independent assay [1] is reported as 3.1 M⁻¹ s⁻¹ and the Activity (µmol/sec/µmol), specific activity for mesyl-dFPR-ACC (µmol/sec/µmol) (Mesyl-dFPR-ACC) is reported as 2.64.

B3: S222A/H257A/Q286R/Q366V-FVIIa (enzyme)
chain: B1 chain with N122A, S124G, S222A, H257A, Q286R, Q366V
Molecule B3 has a kcat/KM (M^-1s^-1), TF-dependent assay [1] of 1e+08 M⁻¹ s⁻¹, a kcat/KM, TF-independent assay [1] of 12.5 M⁻¹ s⁻¹ and an Activity (µmol/sec/µmol), specific activity for mesyl-dFPR-ACC (µmol/sec/µmol) (Mesyl-dFPR-ACC) of 2.43.

B4: S52A/S60A/Q286R/H373F-FVIIa (enzyme)
chain: B1 chain with S52A, S60A, N122A, S124G, Q286R, H373F
B4 gave a kcat/KM (M^-1s^-1), TF-dependent assay [1] of 9.44e+07 M⁻¹ s⁻¹, a kcat/KM, TF-independent assay [1] of 30.1 M⁻¹ s⁻¹ and an Activity (µmol/sec/µmol), specific activity for mesyl-dFPR-ACC (µmol/sec/µmol) (Mesyl-dFPR-ACC) of 3.14.

B5: H373F-FVIIa (enzyme)
chain: B1 chain with N122A, S124G, H373F
Work on B5 yielded a kcat/KM (M^-1s^-1), TF-dependent assay [1] of 5.58e+07 M⁻¹ s⁻¹ and an Activity (µmol/sec/µmol), specific activity for mesyl-dFPR-ACC (µmol/sec/µmol) (Mesyl-dFPR-ACC) of 1.17.

B6: Q366V-FVIIa (enzyme)
chain: B1 chain with N122A, S124G, Q366V
B6 gave a kcat/KM (M^-1s^-1), TF-dependent assay [1] of 5.48e+07 M⁻¹ s⁻¹, a kcat/KM, TF-independent assay [1] of 4.3 M⁻¹ s⁻¹ and an Activity (µmol/sec/µmol), specific activity for mesyl-dFPR-ACC (µmol/sec/µmol) (Mesyl-dFPR-ACC) of 9.29.

B7: Q286R/H373F-FVIIa (enzyme)
chain: B1 chain with N122A, S124G, Q286R, H373F
Work on B7 yielded a kcat/KM (M^-1s^-1), TF-dependent assay [1] of 9.01e+07 M⁻¹ s⁻¹, a kcat/KM, TF-independent assay [1] of 81.6 M⁻¹ s⁻¹ and an Activity (µmol/sec/µmol), specific activity for mesyl-dFPR-ACC (µmol/sec/µmol) (Mesyl-dFPR-ACC) of 0.78.

B8: Q286R/M298Q/Q366N-FVIIa (enzyme)
chain: B1 chain with N122A, S124G, Q286R, M298Q, Q366N
With B8 the kcat/KM (M^-1s^-1), TF-dependent assay [1] was 1.17e+08 M⁻¹ s⁻¹, the kcat/KM, TF-independent assay [1] was 65.9 M⁻¹ s⁻¹ and the Activity (µmol/sec/µmol), specific activity for mesyl-dFPR-ACC (µmol/sec/µmol) (Mesyl-dFPR-ACC) was 2.35.

B9: Q286R/H257A-FVIIa (enzyme)
chain: B1 chain with N122A, S124G, H257A, Q286R
With B9 the kcat/KM, TF-independent assay [1] was 4.3 M⁻¹ s⁻¹ and 2.5 M⁻¹ s⁻¹ and the Activity (µmol/sec/µmol), specific activity for mesyl-dFPR-ACC (µmol/sec/µmol) (Mesyl-dFPR-ACC) was 1.96.

B10: H257S/Q286R/Q366V-FVIIa (enzyme)
chain: B1 chain with N122A, S124G, H257S, Q286R, Q366V
B10 showed a kcat/KM (M^-1s^-1), TF-dependent assay [1] of 7.1e+07 M⁻¹ s⁻¹, a kcat/KM, TF-independent assay [1] of 7.7 M⁻¹ s⁻¹ and an Activity (µmol/sec/µmol), specific activity for mesyl-dFPR-ACC (µmol/sec/µmol) (Mesyl-dFPR-ACC) of 2.

Reference: patent US20090291890A1 (published 2009)
